Results from article PMC446230.

How the values were obtained:
[1] = molecular target: DC-SIGN (DC-specific intercellular adhesion molecule-3 (ICAM-3)-grabbing nonintegrin) on Raji/DC-SIGN cells (human) (UniProt Q9NNX6); assay: virus adhesion to cells, captured virus measured by p24 ELISA
[2] = molecular target: DC-SIGN (DC-specific intercellular adhesion molecule-3 (ICAM-3)-grabbing nonintegrin) on K562/DC-SIGN cells (human) (UniProt Q9NNX6); assay: as above

With “R5-tropic HIV-1ADA envelope glycoprotein on pseudotyped HIV-Luc/ADA particles (natural protein)” the fold HIV-1 binding relative to the parental cells [1] was 1.5 fold and the fold HIV-1 binding relative to the parental cells [2] was 1.8 fold.
